US8173397B2, “Folded recombinant catalytic fragments of multidomain serine proteases, preparation and uses thereof” (TargetEx Kft., priority 2002, dated 2012)

Key:
[1] = Autoactivation of MASP fragments followed on reducing SDS-PAGE; format: biochemical; details: after renaturation / purification
Description: The catalytic region of MASP-1 and MASP-2, consisting of the two complement control protein modules and the serine protease domain (CCP1-CCP2-SP) (FIG. 3.) was expressed in E. coli BL-21 cells using the pET-17b expression vector. In the case of MASP-2, truncated fragments of the catalytic region (the serine protease domain with one CCP module and the serine protease domain alone) (FIG. 3) were also expressed in the same expression system. Since the recombinant proteins accumulated as inclusion bodies inside the bacterial cells, renaturation procedures were needed to restore the native, folded structure (see Materials and Methods). The renatured recombinant proteins were purified by ion exchange chromatography on Q-Sepharose Fast Flow and Mono-S columns. The renaturation and the purification procedures were followed by SDS-PAGE and the purified proteins were subjected to N-terminal sequencing. Before renaturation the inclusion body proteins yielded single bands on the reducing SDS-PAGE corresponding to the zymogen form of the enzymes. […] The MASP-1 CCP1-CCP2-SP fragment co-purified with a minor contaminant, which migrated on SDS-PAGE as a band of 24 kDa under reducing and at 39 kDa under non-reducing conditions. […] The cleavage occurred at the Arg^504-Asp^505 bond removing the histidine from the catalytic triad and thus causing the loss of its enzymatic activity. […]

P1 Arg oligopeptide = assay: Competing oligopeptide substrate library; format: biochemical; details: same conditions
Method: The specificities of the MASP-1 and MASP-2 CCP1-CCP2-SP fragments were tested on a competing oligopeptide library applying the method described before (Antal, 2001).
To further investigate the range of substrate specificity and relative specific activities of MASP-1 and MASP-2 we applied a competing oligopeptide substrate library. (Antal, 2001). This library contains a mixture of seven oligopeptides (each 13 amino acids in length) with different cleavage sites (P1) for both trypsin and chymotrypsin-like enzymes (His-Ala-Ala-Pro-Xxx-Ser-Ala-Asp-Ile-Gln-Ile-Asp-Ile, SEQ ID NO:18, where Xxx could be Lys, Arg, Tyr, Leu, Phe, Trp or Pro). The individual peptide substrates compete for the protease under investigation, in our cases for either the MASP-1 CCP1-CCP2-SP or the MASP-2 CCP1-CCP2-SP fragment. […] The MASP-1 catalytic fragment (CCP1-CCP2-SP) exerted a substantially larger activity on the Arg oligopeptide substrate than the MASP-2 fragment (FIG. 7). […] MASP-2 also preferred the Arg substrate to the Lys one, but the degree of preference was much less than that of MASP-1. A very similar specificity profile was obtained for trypsin in this oligopeptide library system.

C4 = C4 cleavage by MASP fragments; format: biochemical, human; details: 37° C., pH 7.4; averages of 2 to 4 experiments, standard errors
Method: C2, C3, C3(NH3), C4 cleavage—Serial dilutions of MASP-1 and MASP-2 fragments ranging between concentrations of 1 μM and 10 pM were incubated at 37° C. in 20 mM HEPES, 140 mM NaCl, pH 7.4 with C2, C3, C3(NH3) or C4 at typical concentrations of 0.5-1 μM. The cleavage was followed by SDS-PAGE under reducing conditions. Desirable concentrations of the MASP fragments for further detailed kinetic analysis were chosen to be where half of the protein substrates were hydrolyzed during the first 20 minutes of incubation. The protein substrates C2, C3, C3(NH3) or C4 were then incubated with the selected concentrations of the MASP fragments at 37° C. in 20 mM HEPES, 140 mM NaCl, pH 7.4. Typically 11-13 samples were taken at varying time periods but always within 50 minutes from the beginning of the reaction. Cleavages rates were quantified by measuring the diminution of the cleaved chain visualized by Coomassie stained SDS-PAGs using a GEL DOC 1000 instrument and Molecular Analyst Software for densitometric calculations (Bio-Rad, Hercules, Calif., USA). The reactions were assumed to be of the Michaelis-Menten type. In the case of C3 and C3(NH3) cleavage a further reasonable assumption of KM>>[substrate] was made. The constants KM, kcat and […] were estimated by unbiased non-linear regression methods regressing the data on the following equations: t=([S0]−[S]+KMln([S0]/[S]))/(kcat[E0]) or in the case of C3 and C3(NH3) cleavage on [S]=[S0]exp(−t[E0]kcat/KM).

B1: MASP-1γB: E. coli-expressed, refolded human MASP-1 CCP1-CCP2-SP fragment, Gly298 to Asn699 with N-terminal Ala-Ser-Met-Thr tag (protein)
chain 1: ASMTGNECPELQPPVHGKIEPSQAKYFFKDQVLVSCDTGYKVLKDNVEMDTFQIECLKDGTWSNKIPTCKIVDCRAPGELEHGLITFSTRNNLTTYKSEIKYSCQEPYYKMLNNNTGIYTCSAQGVWMNKVLGRSLPTCLPVCGLPKFSRKLMAR
chain 2: IFNGRPAQKGTTPWIAMLSHLNGQPFCGGSLLGSSWIVTAAHCLHQSLDPEDPTLRDSDLLSPSDFKIILGKHWRLRSDENEQHLGVKHTTLHPQYDPNTFENDVALVELLESPVLNAFVMPICLPEGPQQEGAMVIVSGWGKQFLQRFPETLMEIEIPIVDHSTCQKAYAPLKKKVTRDMICAGEKEGGKDACAGDSGGPMVTLNRERGQWYLVGTVSWGDDCGKKDRYGVYSYIHHNKDWIQRVTGVRN
autoactivation, in words [1]: fully activated
efficiency of digestion of the P1 Arg peptide relative to the corresponding fragment of MASP-2 (P1 Arg oligopeptide): 4-5 fold
C4 kcat (C4): 0.002 ± 0.001 s⁻¹
